Measurements from US20190269666A1 (Eli Lilly, published 2019).

How the values were obtained:
[1] = target: T1, biotinylated PD-L1-Fc fusion protein (Homo sapiens (Human), UniProt Q9NZQ7 19-238, limits assumed, biotinylated (sites not given)); test: blocking ELISA: antibody premixed with biotinylated PD-L1-Fc, plate coated with B7-1-Fc (1 ug/ml, R&D Systems)
T1 construct: not shown: Fc part

[2] = target: T2, cell surface PD-L1 on MDA-MB231 cells (human, UniProt Q9NZQ7 19-290); test: flow cytometry on MDA-MB231 cells, biotinylated antibody, streptavidin-PE detection
T2 construct: Endogenous PD-L1 of the human cell line; also called cell surface expressed human PD-L1; MDA-MB 231 cells (PD-L1-positive human breast adenocarcinoma cell line)
Procedure: Plate are centrifuged at 1200 rpm for 5 minutes and supernatant removed. 100 μL of antibody-biotin (serially diluted by 1:4 starting from 10 μg/ml) is added. A total of 6 serial dilutions are evaluated. After incubation at 4° C. for 30 minutes, cells are washed twice with DPBS. 100 μL of detection buffer containing 5 μL streptavidin-PE is added. After incubation at 4° C. for 30 more minutes, plate is centrifuged and washed twice with DPBS. Cells are re-suspended in 200 μL DPBS for FACS analysis.

[3] = target: T1, biotinylated PD-L1-Fc fusion protein; test: blocking ELISA: antibody premixed with biotinylated PD-L1-Fc (100 ng/well), plate coated with PD-1-Fc (1 ug/ml)
[4] = target: T3, human PD-L1-Fc fusion protein (human, UniProt Q9NZQ7 19-239); test: ELISA, plate coated with human PD-L1-Fc (R&D Systems), anti-human IgG F(ab')2-HRP detection
T3 construct: treated as one molecule; also called soluble human PD-L1-Fc fusion protein; human PD-L1-Fc (R&D Systems); not shown: Fc part
Procedure: Wells are blocked for 2 hours with blocking buffer (PBS containing 5% nonfat dry milk). Wells are washed three times with PBS containing 0.1% TWEEN®-20. […] After washing, the plate is incubated with 100 μL of goat anti-human IgG F(ab′)2-HRP conjugate (Jackson Immuno Research) at room temperature for 1 hour. The plates are washed and then incubated with 100 μL of 3,3′, 5,5′-tetra-methylbenzidine. The absorbance at 450 nm is read on a microplate reader. The half maximal effective concentration (EC₅₀) is calculated using GraphPad Prism 6 software.

[5] = target: T4, cynomolgus monkey PD-L1-Fc fusion protein (cynomolgus monkey); test: SPR (Biacore T200), antibody immobilized, PD-L1-Fc as analyte, 37 C, 1:1 model
T4 construct: Soluble analyte in SPR; also called Cyno PD-L1
Procedure: (§1) Immobilization of antibodies of the present invention as ligand on to sensor chip surface is performed at 25° C. […] The analysis is performed at 37° C. The contact time for each sample is 180 seconds at 30 μL/minute. The dissociation time was 240-1500 seconds. The immobilized surface is regenerated for 18 seconds with 0.95 M NaCl/25 mM NaOH at 30 μL/minute, and then stabilized for 30 seconds. Binding kinetics are analyzed using the Biacore T200 Evaluation software (Version 3.0). Data are referenced to a blank flow cell, and the data are fit to a 1:1 binding model.

[6] = target: T3, human PD-L1-Fc fusion protein; test: as above
Procedure: as §1

T3 sequence (Q9NZQ7 19-239 limits assumed): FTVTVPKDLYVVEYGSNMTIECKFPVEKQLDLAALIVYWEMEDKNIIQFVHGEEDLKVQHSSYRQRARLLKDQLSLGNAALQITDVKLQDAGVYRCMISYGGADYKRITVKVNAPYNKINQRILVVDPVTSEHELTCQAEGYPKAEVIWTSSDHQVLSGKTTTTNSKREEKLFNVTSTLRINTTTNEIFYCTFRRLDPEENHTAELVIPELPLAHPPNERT
T1 sequence (Q9NZQ7 19-238 limits assumed): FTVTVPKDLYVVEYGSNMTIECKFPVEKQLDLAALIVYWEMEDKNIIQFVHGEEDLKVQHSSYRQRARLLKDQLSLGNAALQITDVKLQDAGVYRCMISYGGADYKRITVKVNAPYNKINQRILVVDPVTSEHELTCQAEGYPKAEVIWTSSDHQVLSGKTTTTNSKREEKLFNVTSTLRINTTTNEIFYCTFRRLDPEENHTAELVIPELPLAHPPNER
T2 sequence (Q9NZQ7 19-290 limits assumed): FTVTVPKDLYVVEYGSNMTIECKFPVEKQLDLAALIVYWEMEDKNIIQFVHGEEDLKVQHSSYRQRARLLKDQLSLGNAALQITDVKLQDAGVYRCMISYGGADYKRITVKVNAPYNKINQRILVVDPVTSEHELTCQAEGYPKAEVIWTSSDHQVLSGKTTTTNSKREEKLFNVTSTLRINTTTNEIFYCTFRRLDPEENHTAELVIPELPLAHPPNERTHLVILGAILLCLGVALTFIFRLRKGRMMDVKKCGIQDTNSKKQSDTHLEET

B1: LY3300054 (antibody, human IgG1, lambda, V domains shown)
VH: QVQLVQSGAEVKKPGSSVKVSCKASGGTFSSYAISWVRQAPGQGLEWMGGIIPIFGTANYAQKFQGRVTITADKSTSTAYMELSSLRSEDTAVYYCARSPDYSPYYYYGMDVWGQGTTVTVSS
VL: QSVLTQPPSASGTPGQRVTISCSGSSSNIGSNTVNWYQQLPGTAPKLLIYGNSNRPSGVPDRFSGSKSGTSASLAISGLQSEDEADYYCQSYDSSLSGSVFGGGIKLTVLG
notes: Biotinylated antibody was used in the flow cytometry assay; also called anti-PD-L1 antibody
IC50 [1]: 2400 pM
EC50 [2]: 140 pM
IC50 [3]: 950 pM
EC50 [4]: 110 pM
Kd [5]: 122 pM
koff [5]: 0.000184 s⁻¹
kon [5]: 1.51e+06 M⁻¹ s⁻¹
Kd [6]: 82 pM
koff [6]: 0.000114 s⁻¹
kon [6]: 1.4e+06 M⁻¹ s⁻¹
